Results taken from patent US20180258158A1 (Bristol-Myers Squibb, published 2018).
Where two headings read alike, the source gives them in different places.

Experiments:
[1] = molecular target: T1, human serum albumin (HSA), full length (human, UniProt P02768 25-609); test: SPR off-rate, immobilized HSA, 500 nM Adnectin, 25 C
T1 construct: mature; Immobilized on CM5 chip (SPR) or coated on plates (ELISA)
Experimental: (§1) Measurements were conducted by SPR and ELISA. SPR was conducted as follows. Full length HSA or mouse albumin was immobilized on a Biacore T series CM5 chip at 15 ug/mL in 10 mM acetate buffer (pH 5.0) buffer using standard NHS/EDC coupling, to a surface density of approximately 1000-1100 RU. For off-rate measurements at 25° C., PKE Adnectins were applied as analytes at 500 nM in HBS-P+(0.01 M HEPES pH 7.4, 0.15 M NaCl, 0.005% v/v Surfactant P20) running buffer at a flow rate of 20ul/min for 120 s over the immobilized albumins, followed by 800 s for dissociation. […] Regeneration of the chip surface between cycles was accomplished with two 30 second pulses of 10 mM Glycine, pH 2.0. Kinetic traces of reference-subtracted sensorgrams were fit to a 1:1 binding model for affinity using the Biaevaluation software. Only the dissociation phase was fit for determination of off-rates.

[2] = molecular target: T2, mouse serum albumin (MSA), full length (mouse, UniProt P07724 25-608); test: SPR off-rate, immobilized MSA, 500 nM Adnectin, 25 C
T2 construct: mature; Immobilized on CM5 chip (SPR) or coated on plates (ELISA); also called mouse albumin; murine serum albumin
Experimental: as §1

[3] = molecular target: T1, human serum albumin (HSA), full length; test: SPR, immobilized HSA, 500 nM Adnectin, 25 C
Experimental: as §1

[4] = molecular target: T2, mouse serum albumin (MSA), full length; test: SPR, immobilized MSA, 500 nM Adnectin, 25 C
Experimental: as §1

[5] = molecular target: T1, human serum albumin (HSA), full length; test: SPR off-rate ratio to parent ADX_7016_A01, HSA, 25 C
Experimental: as §1

[6] = molecular target: T2, mouse serum albumin (MSA), full length; test: SPR off-rate ratio to parent ADX_7016_A01, MSA, 25 C
Experimental: as §1

[7] = molecular target: T2, mouse serum albumin (MSA), full length; test: direct binding ELISA, coated MSA, anti-His-HRP
Experimental: (§2) Direct binding ELISA assays were conducted as follows. Full length human and murine serum albumin at 10ug/ml in PBS were coated on Nunc Maxisorp plates overnight at 4° C. Plates were blocked in casein/PBS buffer. PKE Adnectins were allowed to bind over a 4-point concentration range of 0.032-4 uM for HSA and 0.008-1 uM for MSA. Bound Adnectin was detected by anti-His antibody conjugated with HRP (horseradish peroxidase) diluted 1:1500 in casein/PBS. Plates were developed with TMB substrate and absorbance read at 450 nm. Adnectins were binned as high, medium and low affinity binders based on the observed Ymax of the concentration response curves.

[8] = molecular target: T2, mouse serum albumin (MSA), full length; test: SPR off-rate, immobilized MSA, 500 nM Adnectin, 25 C; remark: listed apart in the source
Experimental: as §1

[9] = molecular target: T1, human serum albumin (HSA), full length; test: direct binding ELISA, coated HSA, anti-His-HRP; design: unit not given here
Experimental: as §2

[10] = molecular target: T1, human serum albumin (HSA), full length; test: SPR off-rate, immobilized HSA, 500 nM Adnectin, 25 C; remark: listed apart in the source
Experimental: as §1

[11] = molecular target: T1, human serum albumin (HSA), full length; test: SPR off-rate ratio to parent ADX_7016_A01, HSA, 25 C; remark: listed apart in the source
Experimental: as §1

[12] = molecular target: T2, mouse serum albumin (MSA), full length; test: direct binding ELISA, coated MSA, anti-His-HRP; design: unit not given here
Experimental: as §2

[13] = molecular target: T2, mouse serum albumin (MSA), full length; test: SPR off-rate ratio to parent ADX_7016_A01, MSA, 25 C; remark: listed apart in the source
Experimental: as §1

T1 sequence (P02768 25-609): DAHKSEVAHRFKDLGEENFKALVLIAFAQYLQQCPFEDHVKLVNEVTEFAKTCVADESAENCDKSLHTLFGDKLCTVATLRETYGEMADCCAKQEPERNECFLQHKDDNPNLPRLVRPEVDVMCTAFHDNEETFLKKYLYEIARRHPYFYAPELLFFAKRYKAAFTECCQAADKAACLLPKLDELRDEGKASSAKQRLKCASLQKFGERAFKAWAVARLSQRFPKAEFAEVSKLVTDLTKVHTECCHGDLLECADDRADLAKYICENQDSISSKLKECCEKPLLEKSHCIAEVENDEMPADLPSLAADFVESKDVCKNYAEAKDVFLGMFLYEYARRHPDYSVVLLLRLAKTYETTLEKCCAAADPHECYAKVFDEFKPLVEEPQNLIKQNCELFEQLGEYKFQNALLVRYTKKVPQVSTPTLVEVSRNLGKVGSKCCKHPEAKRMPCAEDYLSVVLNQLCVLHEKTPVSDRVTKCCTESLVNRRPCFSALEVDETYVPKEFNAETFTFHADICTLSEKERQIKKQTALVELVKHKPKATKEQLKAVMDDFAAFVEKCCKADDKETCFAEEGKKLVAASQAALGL

B1: ADX_6727_A07 (Y44S/K85T) (designed binder)
chain: MGVSDVPRDLEVVAATPTSLLISWDAPAVTVRYYRITYGREVQKYSDLGPLYISQEFTVPGSKSTATISGLKPGVDYTITVYAVTGSGESPASSTPISINYRTEIDKPSQHHHHHH
notes: Full His6-tagged entry
[1]
  koff: 0.00129 s⁻¹
[2]
  koff: 0.00222 s⁻¹
[3]
  HSA Binding (RU): 28 RU
[4]
  MSA Binding (RU): 56 RU
[5]
  HSA kd/Parent kd: 4.8
[6]
  MSA kd/Parent kd: 5.2

B2: ADX_6727_G06 (Y35A/K85S) (designed binder)
chain: MGVSDVPRDLEVVAATPTSLLISWDAPAVTVRYYRITYGREVQKASDLGPLYIYQEFTVPGSKSTATISGLKPGVDYTITVYAVTGSGESPASSSPISINYRTEIDKPSQHHHHHH
notes: Full His6-tagged entry
[1]
  koff: 0.00105 s⁻¹
[2]
  koff: 0.00143 s⁻¹
[3]
  HSA Binding (RU): 26 RU
[4]
  MSA Binding (RU): 66 RU
[5]
  HSA kd/Parent kd: 3.9
[6]
  MSA kd/Parent kd: 3.3

B3: ADX_6727_F07 (Y44S/K85A) (designed binder)
chain: MGVSDVPRDLEVVAATPTSLLISWDAPAVTVRYYRITYGREVQKYSDLGPLYISQEFTVPGSKSTATISGLKPGVDYTITVYAVTGSGESPASSAPISINYRTEIDKPSQHHHHHH
notes: Full His6-tagged entry
[1]
  koff: 0.00176 s⁻¹
[2]
  koff: 0.00277 s⁻¹
[3]
  HSA Binding (RU): 35 RU
[4]
  MSA Binding (RU): 62 RU
[5]
  HSA kd/Parent kd: 6.5
[6]
  MSA kd/Parent kd: 6.5

B4: ADX_6727_H10 (L41S/K85S) (designed binder)
chain: MGVSDVPRDLEVVAATPTSLLISWDAPAVTVRYYRITYGREVQKYSDLGPSYIYQEFTVPGSKSTATISGLKPGVDYTITVYAVTGSGESPASSSPISINYRTEIDKPSQHHHHHH
notes: Full His6-tagged entry
[1]
  koff: 0.0086 s⁻¹
[2]
  koff: 0.0146 s⁻¹
[3]
  HSA Binding (RU): 19 RU
[4]
  MSA Binding (RU): 35 RU
[5]
  HSA kd/Parent kd: 32
[7]
  MSA DB ELISA YMIN OBS (OD450): 1 OD450
[6]
  MSA kd/Parent kd: 34

B5: ADX_6727_G10 (Y35S/K85A) (designed binder)
chain: MGVSDVPRDLEVVAATPTSLLISWDAPAVTVRYYRITYGREVQKSSDLGPLYIYQEFTVPGSKSTATISGLKPGVDYTITVYAVTGSGESPASSAPISINYRTEIDKPSQHHHHHH
notes: Full His6-tagged entry
[8]
  koff: 0.00138 s⁻¹
[1]
  koff: 0.000892 s⁻¹
[2]
  koff: 0.00138 s⁻¹
[3]
  HSA Binding (RU): 27 RU
[9]
  HSA DB ELISA (OD450) Ymax obs: 96
  HSA DB ELISA (OD450) Ymin obs: 54
[10]
  koff: 0.000892 s⁻¹
[4]
  MSA Binding (RU): 63 RU
[5]
  HSA kd/Parent kd: 3.3
[11]
  HSA kd/Parent kd: 3.3
[12]
  MSA DB ELISA (OD450) Ymax obs: 100
  MSA DB ELISA (OD450) Ymin obs: 54
[6]
  MSA kd/Parent kd: 3.2
[13]
  MSA kd/Parent kd: 3.2

B6: ADX_6727_B04 (Y35S/K85S) (designed binder)
chain: MGVSDVPRDLEVVAATPTSLLISWDAPAVTVRYYRITYGREVQKSSDLGPLYIYQEFTVPGSKSTATISGLKPGVDYTITVYAVTGSGESPASSSPISINYRTEIDKPSQHHHHHH
notes: Full His6-tagged entry
[8]
  koff: 0.00142 s⁻¹
[1]
  koff: 0.0011 s⁻¹
[2]
  koff: 0.00142 s⁻¹
[3]
  HSA Binding (RU): 23 RU
[9]
  HSA DB ELISA (OD450) Ymax obs: 99
  HSA DB ELISA (OD450) Ymin obs: 62
[10]
  koff: 0.0011 s⁻¹
[4]
  MSA Binding (RU): 62 RU
[5]
  HSA kd/Parent kd: 4.1
[11]
  HSA kd/Parent kd: 4.1
[12]
  MSA DB ELISA (OD450) Ymax obs: 95
  MSA DB ELISA (OD450) Ymin obs: 74
[6]
  MSA kd/Parent kd: 3.3
[13]
  MSA kd/Parent kd: 3.3

B7: ADX_6727_G04 (Y44S/K85S) (designed binder)
chain: MGVSDVPRDLEVVAATPTSLLISWDAPAVTVRYYRITYGREVQKYSDLGPLYISQEFTVPGSKSTATISGLKPGVDYTITVYAVTGSGESPASSSPISINYRTEIDKPSQHHHHHH
notes: Full His6-tagged entry
[1]
  koff: 0.00177 s⁻¹
[2]
  koff: 0.00259 s⁻¹
[3]
  HSA Binding (RU): 28 RU
[4]
  MSA Binding (RU): 56 RU
[5]
  HSA kd/Parent kd: 6.6
[6]
  MSA kd/Parent kd: 6

B8: ADX_6727_D03 (L41S) (designed binder)
chain: MGVSDVPRDLEVVAATPTSLLISWDAPAVTVRYYRITYGREVQKYSDLGPSYIYQEFTVPGSKSTATISGLKPGVDYTITVYAVTGSGESPASSKPISINYRTEIDKPSQHHHHHH
notes: Full His6-tagged entry
[1]
  koff: 0.00777 s⁻¹
[2]
  koff: 0.0134 s⁻¹
[3]
  HSA Binding (RU): 24 RU
[4]
  MSA Binding (RU): 43 RU
[5]
  HSA kd/Parent kd: 28.9
[7]
  MSA DB ELISA YMIN OBS (OD450): 1 OD450
[6]
  MSA kd/Parent kd: 31.3

B9: ADX_6727_H08 (L38T/K85T) (designed binder)
chain: MGVSDVPRDLEVVAATPTSLLISWDAPAVTVRYYRITYGREVQKYSDTGPLYIYQEFTVPGSKSTATISGLKPGVDYTITVYAVTGSGESPASSTPISINYRTEIDKPSQHHHHHH
notes: Full His6-tagged entry; Printed with the same substitutions as ADX_6727_B09
[1]
  koff: 0.01 s⁻¹
[2]
  koff: 0.0284 s⁻¹
[7]
  MSA DB ELISA YMIN OBS (OD450): 1 OD450

B10: ADX_6727_B09 (L38T/K85T) (designed binder)
chain: MGVSDVPRDLEVVAATPTSLLISWDAPAVTVRYYRITYGREVQKYSDTGPLYIYQEFTVPGSKSTATISGLKPGVDYTITVYAVTGSGESPASSTPISINYRTEIDKPSQHHHHHH
notes: Full His6-tagged entry
[8]
  koff: 0.0262 s⁻¹
[1]
  koff: 0.00921 s⁻¹
[2]
  koff: 0.0262 s⁻¹
[9]
  HSA DB ELISA (OD450) Ymax obs: 16
  HSA DB ELISA (OD450) Ymin obs: 2
[10]
  koff: 0.00921 s⁻¹
[11]
  HSA kd/Parent kd: 34
[7]
  MSA DB ELISA YMIN OBS (OD450): 1 OD450
[12]
  MSA DB ELISA (OD450) Ymax obs: 27
  MSA DB ELISA (OD450) Ymin obs: 1
[13]
  MSA kd/Parent kd: 61.2

B11: ADX_6727_F10 (Y35A/K85T) (designed binder)
chain: MGVSDVPRDLEVVAATPTSLLISWDAPAVTVRYYRITYGREVQKASDLGPLYIYQEFTVPGSKSTATISGLKPGVDYTITVYAVTGSGESPASSTPISINYRTEIDKPSQHHHHHH
notes: Full His6-tagged entry
[1]
  koff: 0.00109 s⁻¹
[2]
  koff: 0.00156 s⁻¹
[3]
  HSA Binding (RU): 22 RU
[4]
  MSA Binding (RU): 55 RU
[5]
  HSA kd/Parent kd: 4
[6]
  MSA kd/Parent kd: 3.6

B12: ADX_6727_H06 (Y44Q/K85T) (designed binder)
chain: MGVSDVPRDLEVVAATPTSLLISWDAPAVTVRYYRITYGREVQKYSDLGPLYIQQEFTVPGSKSTATISGLKPGVDYTITVYAVTGSGESPASSTPISINYRTEIDKPSQHHHHHH
notes: Full His6-tagged entry
[1]
  koff: 0.0142 s⁻¹
[2]
  koff: 0.0143 s⁻¹
[3]
  HSA Binding (RU): 24 RU
[4]
  MSA Binding (RU): 43 RU
[5]
  HSA kd/Parent kd: 52.7
[7]
  MSA DB ELISA YMIN OBS (OD450): 1 OD450
[6]
  MSA kd/Parent kd: 33.5
